According to patent publication US20210292396A1 (INTERNATIONAL AIDS VACCINE INITIATIVE, published 2021):
Substitutions are numbered along the chain they refer to.

What was measured:
Assay in all cases: cell-based or functional assay
[1] = biological target: HIV Env of isolate 249M_B10 (HIV)
[2] = biological target: HIV Env of isolate 231965.c01 (HIV)
[3] = biological target: HIV Env of isolate BJOX028000.10.3 (HIV)
[4] = biological target: HIV Env of isolate HIV-0013095-2.11 (HIV)
[5] = biological target: HIV Env of isolate HIV-16055-2.3 (HIV)
[6] = biological target: HIV Env of isolate Ce2060_G9 (HIV)
[7] = biological target: HIV Env of isolate T278-50 (HIV)
[8] = biological target: HIV Env of isolate ZM249M.PL1 (HIV)
[9] = biological target: HIV Env of isolate 6041.v3.c23 (HIV)
HIV Env of isolate CNE53 = HIV Env of isolate CNE53 (HIV)
[10] = biological target: HIV Env of isolate 249M_B10 (HIV); remark: listed apart in the source
[11] = biological target: HIV Env of isolate REJO4541.67 (HIV)
[12] = biological target: HIV Env of isolate 1056_10_TA11_1826 (HIV)
[13] = biological target: HIV Env of isolate 0815.v3.c3 (HIV)
[14] = biological target: HIV Env of isolate 3817.v2.c59 (HIV)
[15] = biological target: HIV Env of isolate ZM197M.PB7 (HIV)
[16] = biological target: HIV Env of isolate 191955_A11 (HIV)
[17] = biological target: HIV Env of isolate 246F_C1G (HIV)
[18] = biological target: HIV Env of isolate T255-34 (HIV)
[19] = biological target: HIV Env of isolate Ce0393_C3 (HIV)
[20] = biological target: HIV Env of isolate CAP45.2.00.G3 (HIV)
[21] = biological target: HIV Env of isolate A07412M1.vrc12 (HIV)
[22] = biological target: HIV Env of isolate 0330.v4.c3 (HIV)
[23] = biological target: HIV Env of isolate ZM109F.PB4 (HIV)
[24] = biological target: HIV Env of isolate Du156.12 (HIV)
HIV Env of isolate CNE30 = HIV Env of isolate CNE30 (HIV)
[25] = biological target: HIV Env of isolate ZM214M.PL15 (HIV)
[26] = biological target: HIV Env of isolate HIV-0013095-2.11 (HIV); remark: listed apart in the source
[27] = biological target: HIV Env of isolate 620345.c01 (HIV)
[28] = biological target: HIV Env of isolate 6240_08_TA5_4622 (HIV)
[29] = biological target: HIV Env of isolate BJOX025000.01.1 (HIV)
[30] = biological target: HIV Env of isolate RHPA4259.7 (HIV)
[31] = biological target: HIV Env of isolate HIV-16845-2.22 (HIV)
[32] = biological target: HIV Env of isolate Du172.17 (HIV)
[33] = biological target: HIV Env of isolate Ce2060_G9 (HIV); remark: listed apart in the source
[34] = biological target: HIV Env of isolate BJOX009000.02.4 (HIV)
[35] = biological target: HIV Env of isolate ZM233M.PB6 (HIV)
[36] = biological target: HIV Env of isolate 235-47 (HIV)
[37] = biological target: HIV Env of isolate ZM249M.PL1 (HIV); remark: listed apart in the source
[38] = biological target: HIV Env of isolate Q769.d22 (HIV)
[39] = biological target: HIV Env of isolate 0260.v5.c36 (HIV)
[40] = biological target: HIV Env of isolate X2088_c9 (HIV)
[41] = biological target: HIV Env of isolate 3103.v3.c10 (HIV)
[42] = biological target: HIV Env of isolate 1012_11_TC21_3257 (HIV)
[43] = biological target: HIV Env of isolate 1006_11_C3_1601 (HIV)

B1: ePGT121.15.H1.L1 (antibody, V domains shown)
VH: QMQLQESGPGLVKPGETLSLTCSVSGASISSSYWSWLRETPGKGLEWIGYTHHSGDTNYAPSLKSRVHLGLHPSKNQVSLSLTSVTAADTAVYYCARTLHGRRIYGVVAFNEWFTYFYWEVWGNGTQVTVSS
VL: SDISVAPGETVRISCGGESIGSRAVQWYQHRAGQAPKLIIYNNQDRPPGIPERFSGSPDIDFGTTATLTITNVEAGDEATYYCHIWDSRRPTNWVFGGGTTLTVL
- neutralization (Table 6 value) [1]: 0.00639
- neutralization (Table 6 value) [2]: 0.68
- neutralization (Table 6 value) [3]: 0.0278
- neutralization (Table 6 value) [4]: 1.07
- neutralization (Table 6 value) [5]: 1.07
- neutralization (Table 6 value) [6]: 0.0102
- neutralization (Table 6 value) [7]: 0.0232
- neutralization (Table 6 value) [8]: 0.00404
- neutralization (Table 6 value) [9]: 0.396
- neutralization IC50 (HIV Env of isolate CNE53): 0.001 µg/mL
- neutralization IC50 [10]: 0.0022 µg/mL
- neutralization IC50 [11]: 3.17 µg/mL
- neutralization IC50 [12]: 0.0001 µg/mL
- neutralization IC50 [13]: 0.0017 µg/mL
- neutralization IC50 [14]: 0.724 µg/mL
- neutralization IC50 [15]: > 50 µg/mL
- neutralization IC50 [16]: > 50 µg/mL
- neutralization IC50 [17]: 0.0013 µg/mL
- neutralization IC50 [18]: 0.0221 µg/mL
- neutralization IC50 [19]: > 50 µg/mL
- neutralization IC50 [20]: 5.02 µg/mL
- neutralization IC50 [21]: 0.0022 µg/mL
- neutralization IC50 [22]: 0.0015 µg/mL
- neutralization IC50 [23]: 10.7 µg/mL
- neutralization IC50 [24]: 0.0001 µg/mL
- neutralization IC50 (HIV Env of isolate CNE30): 0.0024 µg/mL
- neutralization IC50 [25]: 0.0006 µg/mL
- neutralization IC50 [26]: 0.0001 µg/mL
- neutralization IC50 [27]: > 50 µg/mL
- neutralization IC50 [28]: 0.0022 µg/mL
- neutralization IC50 [29]: > 50 µg/mL
- neutralization IC50 [30]: 0.0003 µg/mL
- neutralization IC50 [31]: 0.0072 µg/mL
- neutralization IC50 [32]: 0.0002 µg/mL
- neutralization IC50 [33]: > 50 µg/mL
- neutralization IC50 [34]: 0.0046 µg/mL
- neutralization IC50 [35]: 0.0124 µg/mL
- neutralization IC50 [36]: 0.0019 µg/mL
- neutralization IC50 [37]: 0.0024 µg/mL
- neutralization IC50 [38]: > 50 µg/mL
- neutralization IC50 [39]: 0.004 µg/mL
- neutralization IC50 [40]: 0.0007 µg/mL
- neutralization IC50 [41]: 0.0017 µg/mL
- neutralization IC50 [42]: 0.0009 µg/mL
- neutralization IC50 [43]: 0.0003 µg/mL

B2: ePGT121.15.H6.L1 (antibody, V domains shown)
VH: B1 VH with W113F, N124K
VL: B1 VL
- neutralization (Table 6 value) [1]: 0.0118
- neutralization (Table 6 value) [2]: 1.27
- neutralization (Table 6 value) [3]: 0.00171
- neutralization (Table 6 value) [4]: 0.635
- neutralization (Table 6 value) [5]: 0.635
- neutralization (Table 6 value) [6]: 0.0369
- neutralization (Table 6 value) [7]: 0.0263
- neutralization (Table 6 value) [8]: 0.0127
- neutralization (Table 6 value) [9]: 0.417

B3: PGT-121 (antibody, V domains shown)
VH: QMQLQESGPGLVKPSETLSLTCSVSGASISDSYWSWIRRSPGKGLEWIGYVHKSGDTNYSPSLKSRVNLSLDTSKNQVSLSLVAATAADSGKYYCARTLHGRRIYGIVAFNEWFTYFYMDVWGNGTQVTVSS
VL: SDISVAPGETARISCGEKSLGSRAVQWYQHRAGQAPSLIIYNNQDRPSGIPERFSGSPDSPFGTTATLTITSVEAGDEADYYCHIWDSRVPTKWVFGGGTTLTVLG
- neutralization IC50 (HIV Env of isolate CNE53): 0.007 µg/mL
- neutralization IC50 [10]: > 50 µg/mL
- neutralization IC50 [11]: 4.77 µg/mL
- neutralization IC50 [12]: 0.004 µg/mL
- neutralization IC50 [13]: 0.025 µg/mL
- neutralization IC50 [14]: 18.9 µg/mL
- neutralization IC50 [15]: > 50 µg/mL
- neutralization IC50 [16]: > 50 µg/mL
- neutralization IC50 [17]: 0.041 µg/mL
- neutralization IC50 [18]: 18.7 µg/mL
- neutralization IC50 [19]: > 50 µg/mL
- neutralization IC50 [20]: 1.63 µg/mL
- neutralization IC50 [21]: 0.009 µg/mL
- neutralization IC50 [22]: 0.05 µg/mL
- neutralization IC50 [23]: 8.64 µg/mL
- neutralization IC50 [24]: 0.004 µg/mL
- neutralization IC50 (HIV Env of isolate CNE30): > 50 µg/mL
- neutralization IC50 [25]: 0.46 µg/mL
- neutralization IC50 [26]: > 50 µg/mL
- neutralization IC50 [27]: > 50 µg/mL
- neutralization IC50 [28]: 0.033 µg/mL
- neutralization IC50 [29]: > 50 µg/mL
- neutralization IC50 [30]: 0.015 µg/mL
- neutralization IC50 [31]: 3.97 µg/mL
- neutralization IC50 [32]: 0.033 µg/mL
- neutralization IC50 [33]: > 50 µg/mL
- neutralization IC50 [34]: 2.86 µg/mL
- neutralization IC50 [35]: 3.69 µg/mL
- neutralization IC50 [36]: 0.137 µg/mL
- neutralization IC50 [37]: > 50 µg/mL
- neutralization IC50 [38]: > 50 µg/mL
- neutralization IC50 [39]: 0.053 µg/mL
- neutralization IC50 [40]: 0.003 µg/mL
- neutralization IC50 [41]: 0.009 µg/mL
- neutralization IC50 [42]: 0.003 µg/mL
- neutralization IC50 [43]: 0.002 µg/mL
